B1: TPR t1 (parent)
chain: GACCAAUCUGCCCUCAGAGCUCGAGAACAUCUUCGGAUGCAGAGGAGGCAGGCUUCGGUGGCGCGAUAGCGCCAACGUCCUCAACCUCCAAUGCAUCCCACCACAUGAUGAUGCCUGAAGAGCCUUGGUUUUUUG

Variants of: B1
Experiment: polymerase ribozyme fitness, log enrichment relative to wild type (log ratio); higher = more active; in vitro selection for triplet polymerase activity
Procedure, shortened: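 Genotype fitness is the logarithm of its enrichment divided by wild-type enrichment, using inverse-variance-weighted averages of replicates. That logarithm is base 2. Enrichment was measured by Illumina sequencing of input and output libraries from one triplicate in vitro selection round, with frozen incubation at −7 °C, on PCR-built, transcribed mutant libraries of each subunit of a heterodimeric triplet polymerase ribozyme, retaining genotypes with ≥10 input reads and ≥1 read per output.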

Variant	polymerase ribozyme fitness (log ratio)
GACCAAUCUGCCCUCAGAGCUCGAGAACAUCUUCGGAUGCAGUGGAGGCAGGCUUCGGUCGCGCGAUAGCGCCAAGGACCUCAACCUCCAAUGCAUCCCACCACAUGAUGAUCCCUGAAGAGCCAUGGUUUUUUG [A43U G60C C76G U78A G113C U125A]	-4.6
GACCAAUCUGCCCUCAGAGCUCGAGAACAUCUUCGGAUGCAGUGGAGGCAGGAUUCGGUGGAGCGAUAGCGCCAACGUCCUCAACCUCCAAUACAUCCCACCACAUGAUGACGCCUGAAGAGCCUUGUUUUUUUG [A43U C53A C62A G93A U112C G128U]	-4.57
GACCAAUCUGCCCUCAGAGCUCGAGAACAUCUUCGGAUGCAGUGGAGGCAGGCUUCGGUGGCGCGAUAGCGCCAACCAUCUCAACCUCCAAUGCAUCCCACCACAUGAUGAUGCCUGAAUAGCCUUGGUUCUUUG [A43U G77C U78A C79U G120U U131C]	-1.51
GACCAAUCUGCCCUCAGAGCUCGAGAACAUCUUCGGAUGCAGUGGAGGGAGGCUUCGGUGGCGCGAUAGCGCCAACGACCUCAACCUCCAAUGCAUCCCACCACAUGAUGAUGCAUGAAGAGCCUUGGUUUUUUG [A43U C49G U78A C115A]	-3.44
GACCAAUCUGCCCUCAGAGCUCGAGAACAUCUUCGGAUGCAGUGGAGGCAGGCUUCGGUGGCGCGAUAGCUCCAACGUCCUCAACCUCCAAUGCAUCCCACCACAUGAUGAUGCCUGAAGAGCCUUGGUUUUUUG [A43U G71U]	-1.89
GACCAAUCUGCCCUCAGAGCUCGAGAACAUCUUCGGAUGCAGUGGAGGCAGGCUUCGGUGGCGCGAUAGCACCAACGUCCUCAACCUCCAAUGCAUCCCACCACAUGAUGAUGCUUGAAGAGCCUUGGUUUUUUG [A43U G71A C115U]	-3.62
GACCAAUCUGCCCUCAGAGCUCGAGAACAUCUUCGGAUGCAGUGGAGGCAGGCUUCGGUGGGGCGAUAGCGCCAACGUCCUCAACCUCCAAUGCAUCCCACCACAUGAUGAUGCCUGAAGAGCCUUGGUUUUUUG [A43U C62G]	-3.88
GACCAAUCUGCCCUCAGAGCUCGAGAACAUCUUCGGAUGCAGUGGAGGCAGGCUUCGGUGGAGCGAUAGCGCCAACGUCCUCAACCUCCAAUGCAUCCCACCACAUGAUGAUGCCUGAAGAGCCUUGGUUUUUUG [A43U C62A]	-2.39
GACCAAUCUGCCCUCAGAGCUCGAGAACAUCUUCGGAUGCAGUGGAGGCAGGCUUCGGUGGCGCGAUAGCACCAACGUCCUCAACCUCCAGUGCAUCCCACCACAUGAUGAUGCCUGAAGAGCCUUGGUUUUUUG [A43U G71A A91G]	-3.35
GACCAAUCUGCCCUCAGAGCUCGAGAACAUCUUCGGAUGCAGUGGAGGCAGGCUUCGGUGGCACGAUAGCGCCAACGUCCUCAACCUCCAAUGCAUCCCACCUCAUGAUGAUGCCUCAAGAGCCUUGGUUAUUUG [A43U G63A A103U G117C U131A]	-6.74
GACCAAUCUGCCCUCAGAGCUCGAGAACAUCUUCGGAUGCAGUGGAGGCAGGCUUCGGUGGCGCGAUAGCGCCAACGUCCUCAACCUCCAAGGCAUCCCACCACAUGAUGAUGCCUGAAGAGCCUUGGUUUUUUG [A43U U92G]	-1.81
GACCAAUCUGCCCUCAGAGCUCGAGAACAUCUUCGGAUGCAGUGGAGGCAGGCUUCGGUGGCGCGAUAGCGCCAACGUCCUCAACCUCCAAGGCAUCCCACCACAUGAUGAUGCCUGAAGAGCUUUGGUUUUUUG [A43U U92G C124U]	-0.53
GACCAAUCUGCCCUCAGAGCUCGAGAACAUCUUCGGAUGCAGUGAAGGCAGGCUUUGGUGGUGCGAUAGCGCCAACGUCCUCAACCUCCAAAGCAUCCCACCACAUGAUGAUGCCUGAAGAGCCUUGGUUUUUUG [A43U G45A C56U C62U U92A]	-4.61
GACCAAUCUGCCCUCAGAGCUCGAGAACAUCUUCGGAUGCAGUGGAGGCAGGCUUGGGUGGCGCGAUAGCGCCAACGUGCUCAACCUCCAAUGCAUCCCACCACAUGAUGAUGCCUGAAGAGCCUUGGUUUUUUG [A43U C56G C79G]	-4.99
GACCAAUCUGCCCUCAGAGCUCGAGAACAUCUUCGGAUGCAGUGGAGGCAGGCUUGGGUGGCGCGAUAGCGCCAACGUCCUCAACCUCCAAUGCAUCCCACCACAUGAUGAUGCCUGAAGAGCCUUGGUUUUUUG [A43U C56G]	-1.4
GACCAAUCUGCCCUCAGAGCUCGAGAACAUCUUCGGAUGCAGUGGAGGCAGUCUUCGGUGGCGCGAUGGCGCCAACGUCCUCAACCUCCAAUGCAUCCCACCACAUGAUGAUGCCUGAAGAGCUUUGGUUUUUUG [A43U G52U A68G C124U]	-5.64
GACCAAUCUGCCCUCAGAGCUCGAGAACAUCUUCGGAUGCAGUGGAGGCAGGUUUCGGUGGCGCGAUAGCGCCAGCGUCCUCAACCUACAACGCAUCCCACCACAUGAUGAUGCCUGAAGAGCCUUGGUUUUUUG [A43U C53U A75G C88A U92C]	-3.05
GACCAAUCUGCCCUCAGAGCUCGAGAACAUCUUCGGAUGCAGUGGAGACAGGCUUUGGUGGCGCGAUAGCGCCAACGUCCUCAACCUCCAAUGCAUCCCACCACAUGAUGAUGCCUGAAGAGCCUUGGUUUUUUG [A43U G48A C56U]	-1.58
GACCAAUCUGCCCUCAGAGCUCGAGAACAUCUUCGGAUGCAGUGGAGGCAGGCUUCGGUGGCGCGAUAGCGCCAACGUCCUCAACCGCCAAUGCAUCCCACCACAUGAUGAUGCCUGAAGAGCCUUGGUUUUUUG [A43U U87G]	-1.43
GACCAAUCUGCCCUCAGAGCUCGAGAACAUCUUCGGAUGCAGUGGAGGCAGGCUUCGUUGGCGCGAUAGCGCCAACGUCCUCAACCUCCAAUGCAUCCCACCACAUGAUGAUACCUGAAGAGCCUUGGUUUUUUG [A43U G58U G113A]	-2.63
GACCAAUCUGCCCUCAGAGCUCGAGAACAUCUUCGGAUGCAGUGGAGGCAGGCUUCGGUGGCGCGAUAGCGCCAACGUCCUCAACCUCCAAUGCACCCCAACACAUGAUGAUGCCUGAAGAACCUUAGUUUUUUG [A43U U96C C101A G122A G127A]	-5.79

From the RNAGym collection of RNA variant scans (doi:10.1073/pnas.2313332121)
